Here are results for one substance from paper PMC10330821.

In the experiment the target is native bovine chromogranin B (bCHGB) (bovine). The experiment in a line: SEC; bCHGB in detergents, re-extracted from vesicles and fractionated by gel filtration; elution position compared with recombinant mCHGB. A general note: SEC sorts molecules by how far they enter the pores of the column.

In the case of “native bovine chromogranin B (bCHGB) (natural protein)”, the stoichiometry N (usually a count of units in the complex or per binding partner) was 2.
